Assays:
[1] = target: T1, amyloid beta peptide (Aβ) (UniProt P05067 672-713); assay: ELISA on plates coated with Aβ42 peptide, detection with anti-FLAG M2 HRP ('Ab9 scFv activity, Aβ42 ELISA')
T1 construct: also called Aβ9; Aβ9 ligand
Procedure: An ELISA-based assay was performed to assess Aβ9 scFv activity. 96-well plates were coated with Aβ42 peptide, and 293T conditioned media (containing the GBA-CCD and GBA-CCD-Aβ9 scFv proteins) and cell lysate were then added and incubated for 6 hours. ELISA was developed with anti-FLAG M2 HRP. (See FIG. 23.)

[2] = target: T2, acidic FGF (UniProt P05230 16-155, limits assumed); assay: SPR, FGFR1-CCD injected over immobilized ligand
T2 construct: also called acidic FGF ligand
Procedure: Using a surface plasmon resonance (SPR) technique, the binding kinetics of FGFR1 was measured with two ligands, basic FGF and acidic FGF. A null FGFR1 ligand, vascular endothelial growth factor A (VEGFA), was used as a control. In SPR experiments, the binding of a molecule in the soluble phase (e.g. the peptide of the fusion protein) to a ligand molecule immobilized on a sensor surface is directly measured as a reflected light signal (SPR signal) in a biosensor device. The sensor device may contain an LED-emitting near infrared light, a glass prism fixed to a sensor microchip, and a position-sensitive diode array detector. Binding events cause changes in the refractive index at the surface layer, which are detected as changes in the SPR signal. Specifically, a signal arises when incident LED light is totally internally reflected from the metal-coated interface between two media of different refractive indices (the glass prism and solution). When the incident light is focused on the surface in a wedge, the drop in intensity at the resonance angle appears as a “shadow” in the reflected light wedge, which is detected by the detector. […]
This sensorgram consists of two phases: (Left) In the association phase, the FGFR1-CCD was injected over immobilized ligands on the surface. […] Binding kinetics, including the value of KD, the dissociation constant, can be calculated from the sensorgram.

T2 sequence (P05230 16-155 limits assumed): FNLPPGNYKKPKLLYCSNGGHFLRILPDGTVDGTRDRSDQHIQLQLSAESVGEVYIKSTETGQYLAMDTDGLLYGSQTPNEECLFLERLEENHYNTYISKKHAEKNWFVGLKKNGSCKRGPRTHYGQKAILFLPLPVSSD
T1 sequence (P05067 672-713): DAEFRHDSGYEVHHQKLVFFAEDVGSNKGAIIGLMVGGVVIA

B1: GBA_AB9 (scFv)
fusion protein monomer: ARPCIPKSFGYSSVVCVCNATYCDSFDPPTFPALGTFSRYESTRSGRRMELSMGPIQANHTGTGLLLTLQPEQKFQKVKGFGGAMTDAAALNILALSPPAQNLLLKSYFSEEGIGYNIIRVPMASCDFSIRTYTYADTPDDFQLHNFSLPEEDTKLKIPLIHRALQLAQRPVSLLASPWTSPTWLKTNGAVNGKGSLKGQPGDIYHQTWARYFVKFLDAYAEHKLQFWAVTAENEPSAGLLSGYPFQCLGFTPEHQRDFIARDLGPTLANSTHHNVRLLMLDDQRLLLPHWAKVVLTDPEAAKYVHGIAVHWYLDFLAPAKATLGETHRLFPNTMLFASEACVGSKFWEQSVRLGSWDRGMQYSHSIITNLLYHVVGWTDWNLALNPEGGPNWVRNFVDSPIIVDITKDTFYKQPMFYHLGHFSKFIPEGSQRVGLVASQKNDLDAVALMHPDGSAVVVVLNRSSKDVPLTIKDPAVGFLETISPGYSIHTYLWRRQLKEFMGYQGPPGPPGPPGIPGNHGNNGNNGATGHEGAKGEKGDKGDLGPRGERGQHGPKGEKGYPGIPGYCGPPGPPGPPGIPGNHGNNGNNGATGHEGAKGEKGDKGDLGPRGERGQHGPKGEKGYPGIPDYKDDDDKLQISGGGGSGGGGSQVTLKESGPGILQPSQTLSLTCSFSGFSLNTFGMGVSWIRQPSGKGLEWLAHIFWDDDKHYNPSLKSRLTISKDTSNNQVFLKITTVDTADTATYYCVRYGFDGFPYWGQGTLVTVSAGGGGSGGGGSGGGGSDVVMTQTPLSLPVSLGDQASISCRSNQSLVHSNGNTYLHWYLQKPGQSPKLLIYKVSNRFSGVPDRFSGSGSGTDFTLKISRVEAEDLGFYFCSQSTRVPWTFGGGTKLELKRAAAHHHHHHV
notes: fusion of glucocerebrosidase, CCD and Aβ9 scFv; tested as conditioned media and as protein purified from media and lysate; also called hGBA-CCD-Aβ9 scFv; GBA-CCD-antiAβ9 scFv fusion protein
Does B1 bind [1]?
Result: binds

B2: FGFR1-CCD fusion protein (receptor)
chain: RPSPTLPEQAQPWGAPVEVESFLVHPGDLLQLRCRLRDDVQSINWLRDGVQLAESNRTRITGEEVEVQDSVPADSGLYACVTSSPSGSDTTYFSVNVSDALPSSEDDDDDDDSSSEEKETDNTKPNPVAPYWTSPEKMEKKLHAVPAAKTVKFKCPSSGTPNPTLRWLKNGKEFKPDHRIGGYKVRYATGSIIMDSVVPSDKGNYTCIVENEYGSINHTYQLDVVERSPHRPILQAGLPANKTVALGSNVEFMCKVYSDPQPHIQWLKHIEVNGSKIGPDNLPYVQILKTAGVNTTDKEMEVLHLRNVSFEDAGEYTCLAGNSIGLSHHSAWLTVLEALEERPAVMLKEFMGYQGPPGPPGPPGIPGNHGNNGNNGATGHEGAKGEKGDKGDLGPRGERGQHGPKGEKGYPGIPGYCGPPGPPGPPGIPGNHGNNGNNGATGHEGAKGEKGDKGDLGPRGERGQHGPKGEKGYPGIPDYKDDDDKLQISSTVAAAHHHHHHV
notes: CCD fusions are said to form multimers (trimers, hexamers); It was expressed in cells, isolated and purified; also called Fibroblast growth factor receptor 1 (hsFGFR1) CCD fusion
Which Kd [2] does the source give for B2 here?
The Kd was < 1 pM.
